Tested on: primary human B cells
Experiment: Expansion and maintenance of BCL-6/BCL-XL/CD40L transduced primary human B cells in culture
Format: cell-based
Settings: BCL-6/BCL-xL transduced B cells, IL-21 50 ng/mL, absence of L-cells
Protocol: The activated, isolated B cells (FIG. 7A) were stably transduced with BCL-6/BCL-xL or a combination of BCL-6/BCL-XL and CD40L based protocols for retroviral transduction of primary B cells have been described in the literature (e.g. Kwakkenbos et al. Nat Med 2010) and as described in this invention (Example 10).
After 72 hours BCL-6/BCL-XL modified B cells were harvested, split and either cultured in the absence of L-cells or cultured on hCD40L expressing L cells. BCL-6/BCL-xL and CD40L transduced B cells are cultured in complete B cell medium supplemented with 50 ng/mL IL-21 in the absence of L-cells. […] CD40L expression on the B cells is measured on a flow cytometer using an antibody directed against CD154 (FIG. 7C).
B cells were isolated from healthy donor PBMC using the magnetic bead-based cell separation method from Miltenyi. […] Purity of the isolated B cells was measured by FACS using antibodies directed against CD3 and CD20. […] Expression of BCL6/BCL-xL was measured by FACS by GFP expression. […] Expression of BCL6/BCL-xL was measured by GFP expression and expression of CD40L was measured using an antibody directed against CD154, analyzed by FACS. […] Cells were split twice a week at a concentration of 0.2e6/mL cells and cell viability was analyzed. […] The total cumulative cell counts was calculated based on counts that were measured while splitting the cells. […]

B1: CD40L transgene: hCD40L transgene expressed in BCL-6/BCL-xL immortalized B cells (protein)
DNA: MIETYNQTSPRSAATGLPISMKIFMYLLTVFLITQMIGSALFAVYLHRRLDKIEDERNLHEDFVFMKTIQRCNTGERSLSLLNCEEIKSQFEGFVKDIMLNKEETKKENSFEMQKGDQNPQIAAHVISEASSKTTSVLQWAEKGYYTMSNNLVTLENGKQLTVKRQGLYYIYAQVTFCSNREASSQAPFIASLCLKSPGRFERILLRAANTHSSAKPCGQQSIHLGGVFELQPGASVFVNVTDPSQVSHGTGFTSFGLLKL
B cell expansion without CD40L-expressing feeder cells: can be used as a replacement for CD40L-expressing feeder cells for expansion

From patent US20220228164A1, “ENGINEERED ANTIGEN PRESENTING CELLS” (Neogene Therapeutics B.V., priority 2021, published 2022)
